System: CD34+-derived cells
Experiment: Apoptosis by cleaved caspase-3 intracellular flow cytometry and Annexin-V
Format: cell-based, human
Conditions: G-CSF 100 ng/ml; CH-223191 500 nM (4n fraction)
Description: Cells were fixed with 4% paraformaldehyde in PBS for 10 min, washed with PBS and resuspended in 0.1% saponin in HBSS (staining medium). The samples were then stained with antibodies against cytoplasmic antigens, including NMM-IIA (Sigma), NMM-IIB, phospho-NMM-IIA and caspase-3 (all from Cell Signaling Technology) for 30 min at room temperature. In some cases, cells were concurrently stained with PE anti-CD34 or anti-human CD38 for subpopulation analysis. Cells were then washed and stained with anti-rabbit or mouse secondary antibodies conjugated with Alexa 647 (Invitrogen) for 30 min, followed by analysis on FACSCalibur.

B1: G-CSF: human recombinant granulocyte colony-stimulating factor (protein, UniProt P09919 31-207, looked up)
Granulocyte …: TPLGPASSLPQSFLLKCLEQVRKIQGDGAALQEKLVSECATYKLCHPEELVLLGHSLGIPWAPLSSCPSQALQLAGCLSQLHSGLFLYQGLLQALEGISPELGPTLDTLQLDVADFATTIWQQMEELGMAPALQPTQGAMPAFASAFQRRAGGVLVASHLQSFLEVSYRVLRHLAQP
B1 was tested, and the “viability of untreated CD34+ and CD34− cells” value was “improves the viability”.
